Source: patent publication US5156956A, “Transgultaminase” (Ajinomoto Co., Inc., priority 1987, dated 1992)

Assays:
[1] = Sausage: rheometer and organoleptic evaluation; settings: 1 unit per 1 g of dry pork, 55° C. 2 h, then 80° C. 30 min
Experimental: Physical properties were measured with a rheometer (manufactured by Yamaden Co., Ltd.) and organoleptic evaluation (n=10) was performed. The amount of BTGase added was 1 unit per 1 g of dry pork. The enzyme reaction was carried out at 55° C. for 2 hours. After completion of the reaction, heating was performed at 80° C. for 30 minutes to make a product. As a control, BTGase-free product was used.

Prawn myosin = assay: Gelation, test tube inversion method; assay type: biochemical; design: key: .smallcircle.: gelled; Δ: weakly gelled; x: remained as solution; settings: 5 ml, 3.6 units of BTGase, 35° C., 35 minutes at maximum, MTGase 0.1 U/mg, 37° C., 1 h
Experimental: 3) Prawn myosin was prepared as follows for use as a substrate for BTGase.
The shell of a fresh (live) prawn (body length of about 5 cm) was peeled off and the prawn flection muscle was taken out. After mincing, the mince was washed with ice water and homogenized under cooling in the presence of 0.1 mM DTT and 0.1 mM PMSF. By centrifugation, actomyosin was extracted and separated therefrom. By further ultracentrifugation at 10^5 ×g for 60 minutes, actin was removed to give a myosin-rich fraction. Further dilution precipitation and ultracentrifugation were repeated to give purified prawn myosin. […] By immersing in a water bath at 35° C., the reaction was initiated and carried out for 35 minutes at maximum.
(§1) For purposes of comparison, the results of gelation ability test with MTGase are also shown. The amount of MTGase added was 0.1 U per 1 mg of substrate protein.

Gelatin [2] = assay: Gelatin gel after heating in boiling water bath; assay type: biochemical; design: key: x: complete solution; .smallcircle.: gelled condition (not dissolved even after heating); settings: 0.02 U/mg protein, 37° C. 1 h, then boiling water bath 10 minutes
Experimental: 0.1M Tris-HCl buffer (pH 7.6) was added to gelatin (manufactured by Nitta Gelatin Co., Ltd.) so as to form 5.10 wt. % solution. Gelatin was completely dissolved at 60° C. for 3 minutes and the same BTGase as that of Example 4 was added to the solution in 0.02 U/mg protein. After thoroughly mixing, the mixture was reacted at 37° C. for an hour and then heated in a boiling water bath for 10 minutes. Immediately thereafter, the condition was observed.
For purposes of comparison, the system which was identically treated except for adding no BTGase was used as control.

[3] = tested on: oxhide-derived atelo-collagen; assay: Gelation of atelo-collagen solutions; assay type: biochemical, ox; design: key: .smallcircle.: gelled; Δ: weakly gelled; x: remained as solution; settings: 0.05 U/mg protein; for Gelation, Immediately After Completion of Incubation: 55° C. 60 minutes; for Gelation, After Heating at 100° C.: 100° C. 15 minutes; for Gelation, After Allowing to Stand for 60 Minutes: room temperature
Experimental: A necessary amount of oxhide-derived atelo-collagen powders (manufactured by Kouken K.K.) were taken in a test tube and 2 ml of 0.1M Tris-HCl buffer (pH 7.5) was added thereto. After maintaining in a water bath at 55° C. for 15 minutes, the mixture was stirred to prepare 3 to 10% atelo-collagen solutions. Before the solutions of high concentration were gelled due to cooling, BTGase was added thereto in 0.05 U/mg protein followed by incubation at 55° C. for 60 minutes. As a control for the all samples, 10% atelo-collagen solution with no BTGase added was also incubated likewise. Immediately after completion of the incubation, the system was allowed to stand at room temperature for 60 minutes. Then the system was further kept in a water bath of 100° C. for 15 minutes and then the condition in the test tube was observed.

Soybean 11S globulin = assay: Gelation, test tube inversion method; assay type: biochemical; design: key: .smallcircle.: gelled; Δ: weakly gelled; x: remained as solution; settings: BTGase 0.02 U/mg protein, 55° C., 1 h, MTGase 0.1 U/mg, 37° C.
Experimental: (§2) 1) The BTGase (freeze dried product, specific activity of 2.50 Units/mg protein) prepared in Example 1 was added to 5 ml of each of 5 and 10 wt. % solutions or suspensions of protein foodstuffs prepared by the method described in Example 1 of Published Unexamined Japanese Patent Application No. 149645/83 or purchased, namely, (1) αsi -casein, (2) Na-caseinate, (3) soybean 11S globulin, (4) soybean 7S globulin, (5) soybean protein isolate "Ajipron S-2" (manufactured by Ajinomoto Co., Inc.), (6) water-extracted soybean protein, (7) acid-precipitated soybean protein, (8) soybean protein particles, (9) soybean protein micelles and (10) gelatin in 0.02 U per 1 mg of protein followed by shake incubation at 55° C. for an hour. After allowing to stand at room temperature, test tubes with samples were turned upside down, whereby gelation was determined by noting whether the samples drifted down or not.
as §1

αS1 -Casein = assay: Gelation, test tube inversion method; assay type: biochemical; design: key: .smallcircle.: gelled; Δ: weakly gelled; x: remained as solution; settings: BTGase 0.02 U/mg protein, 55° C., 1 h, MTGase 0.1 U/mg, 37° C.
Experimental: as §2, §1

[4] = tested on: Water-extracted soybean protein; assay: Gelation, test tube inversion method; assay type: biochemical; design: key: .smallcircle.: gelled; Δ: weakly gelled; x: remained as solution; settings: BTGase 0.02 U/mg protein, 55° C., 1 h, MTGase 0.1 U/mg, 37° C.
Experimental: as §2, §1

Gelatin [5] = assay: Gelation, test tube inversion method; assay type: biochemical; design: key: .smallcircle.: gelled; Δ: weakly gelled; x: remained as solution; settings: BTGase 0.02 U/mg protein, 55° C., 1 h, MTGase 0.1 U/mg, 37° C.
Experimental: as §2, §1

Soybean 7S globulin = assay: Gelation, test tube inversion method; assay type: biochemical; design: key: .smallcircle.: gelled; Δ: weakly gelled; x: remained as solution; settings: BTGase 0.02 U/mg protein, 55° C., 1 h, MTGase 0.1 U/mg, 37° C.
Experimental: as §2, §1

Soybean protein micells = assay: Gelation, test tube inversion method; assay type: biochemical; design: key: .smallcircle.: gelled; Δ: weakly gelled; x: remained as solution; settings: BTGase 0.02 U/mg protein, 55° C., 1 h, MTGase 0.1 U/mg, 37° C.
Experimental: as §2, §1

[6] = tested on: Ajipron S-2 (soybean protein isolate); assay: Gelation, test tube inversion method; assay type: biochemical; design: key: .smallcircle.: gelled; Δ: weakly gelled; x: remained as solution; settings: BTGase 0.02 U/mg protein, 55° C., 1 h, MTGase 0.1 U/mg, 37° C.
Experimental: as §2, §1

Na-Caseinate = assay: Gelation, test tube inversion method; assay type: biochemical; design: key: .smallcircle.: gelled; Δ: weakly gelled; x: remained as solution; settings: BTGase 0.02 U/mg protein, 55° C., 1 h, MTGase 0.1 U/mg, 37° C.
Experimental: as §2, §1

[7] = tested on: Acid-precipitated soybean protein; assay: Gelation, test tube inversion method; assay type: biochemical; design: key: .smallcircle.: gelled; Δ: weakly gelled; x: remained as solution; settings: BTGase 0.02 U/mg protein, 55° C., 1 h, MTGase 0.1 U/mg, 37° C.
Experimental: as §2, §1

[8] = tested on: Soybean protein particles; assay: Gelation, test tube inversion method; assay type: biochemical; design: key: .smallcircle.: gelled; Δ: weakly gelled; x: remained as solution; settings: BTGase 0.02 U/mg protein, 55° C., 1 h, MTGase 0.1 U/mg, 37° C.
Experimental: as §2, §1

B1: BTGase: microorganism-derived transglutaminase; in Examples 4-11 the freeze dried product prepared in Example 1 (S. mobaraense, i.e. BTG-1) (protein, UniProt P81453 77-407, looked up)
Protein-glutamine …: DSDDRVTPPAEPLDRMPDPYRPSYGRAETVVNNYIRKWQQVYSHRDGRKQQMTEEQREWLSYGCVGVTWVNSGQYPTNRLAFASFDEDRFKNELKNGRPRSGETRAEFEGRVAKESFDEEKGFQRAREVASVMNRALENAHDESAYLDNLKKELANGNDALRNEDARSPFYSALRNTPSFKERNGGNHDPSRMKAVIYSKHFWSGQDRSSSADKRKYGDPDAFRPAPGTGLVDMSRDRNIPRSPTSPGEGFVNFDYGWFGAQTEADADKTVWTHGNHYHAPNGSLGAMHVYESKFRNWSEGYSDFDRGAYVITFIPKSWNTAPDKVKQGWP
Viscosity Coefficient [1]: 1.92 × 10^9 dyn.sec.cm^-2
Gelation, Prawn myosin 3.6% (Prawn myosin): .smallcircle.
Condition of 5% Gelatin, +BTG (Gelatin [2]): .smallcircle.
Condition of 10% Gelatin, +BTG (Gelatin [2]): .smallcircle.
Gelation, Immediately After Completion of Incubation ([3]; 3% Solution): .smallcircle.
Gelation, After Heating at 100° C. ([3]; 3% Solution): .smallcircle.
Gelation, After Allowing to Stand for 60 Minutes ([3]; 3% Solution): .smallcircle.
Gelation, Immediately After Completion of Incubation ([3]; 5% Solution): .smallcircle.
Gelation, After Heating at 100° C. ([3]; 5% Solution): .smallcircle.
Gelation, After Allowing to Stand for 60 Minutes ([3]; 5% Solution): .smallcircle.
Gelation, Immediately After Completion of Incubation ([3]; 10% Solution): .smallcircle.
Gelation, After Heating at 100° C. ([3]; 10% Solution): .smallcircle.
Gelation, After Allowing to Stand for 60 Minutes ([3]; 10% Solution): .smallcircle.
Gelation, Soybean 11S globulin 5% (Soybean 11S globulin; 5%): .smallcircle.
Gelation, Soybean 11S globulin 10% (Soybean 11S globulin; 10%): .smallcircle.
Gelation, αS1 -Casein 5% (αS1 -Casein; 5%): .smallcircle.
Gelation, αS1 -Casein 10% (αS1 -Casein; 10%): .smallcircle.
Gelation, Water-extracted soybean protein 5% ([4]; 5%): .smallcircle.
Gelation, Water-extracted soybean protein 10% ([4]; 10%): .smallcircle.
Gelation, Gelatin 5% (Gelatin [5]; 5%): .smallcircle.
Gelation, Gelatin 10% (Gelatin [5]; 10%): .smallcircle.
Gelation, Soybean 7S globulin 5% (Soybean 7S globulin; 5%): .smallcircle.
Gelation, Soybean 7S globulin 10% (Soybean 7S globulin; 10%): .smallcircle.
Gelation, Soybean protein micells 5% (Soybean protein micells; 5%): Δ
Gelation, Soybean protein micells 10% (Soybean protein micells; 10%): .smallcircle.
Gelation, Ajipron S-2 5% ([6]; 5%): .smallcircle.
Gelation, Ajipron S-2 10% ([6]; 10%): .smallcircle.
Gelation, Na-Caseinate 5% (Na-Caseinate; 5%): .smallcircle.
Gelation, Na-Caseinate 10% (Na-Caseinate; 10%): .smallcircle.
Gelation, Acid-precipitated soybean protein 5% ([7]; 5%): .smallcircle.
Gelation, Acid-precipitated soybean protein 10% ([7]; 10%): .smallcircle.
Gelation, Soybean protein particles 5% ([8]; 5%): .smallcircle.
Gelation, Soybean protein particles 10% ([8]; 10%): .smallcircle.
